The results in this text go back to patent US20210395361A1 (Alector, published 2021).

For orientation: koff means the rate constant with which the complex falls apart. Usually kon stands for the second-order rate constant of association.

Assay [1] has as its target T1, Histidine-tagged human Siglec-5 (NovoProtein) (human, UniProt O15389 17-434, limits assumed).
T1 construct: Bought soluble protein; also called His-tagged human Siglec-5; not shown: histidine tag
T1 sequence: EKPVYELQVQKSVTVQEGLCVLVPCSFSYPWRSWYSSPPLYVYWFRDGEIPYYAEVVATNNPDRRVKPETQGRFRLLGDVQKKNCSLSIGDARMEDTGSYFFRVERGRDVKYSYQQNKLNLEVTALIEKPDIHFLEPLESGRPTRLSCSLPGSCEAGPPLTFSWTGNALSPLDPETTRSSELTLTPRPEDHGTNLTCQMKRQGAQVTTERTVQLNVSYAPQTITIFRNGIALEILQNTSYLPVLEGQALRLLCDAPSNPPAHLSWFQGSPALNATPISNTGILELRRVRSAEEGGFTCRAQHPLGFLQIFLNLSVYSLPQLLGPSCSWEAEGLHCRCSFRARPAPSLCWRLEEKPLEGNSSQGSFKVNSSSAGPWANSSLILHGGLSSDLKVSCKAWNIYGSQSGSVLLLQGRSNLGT
Nature of the assay: array SPR, antibody immobilized, His-tagged human Siglec-5 (0-500 nM) in solution; apparent affinity. Here is the method:
The apparent binding affinities of the anti-Siglec-5 antibodies were measured by array surface plasmon resonance (SPR), according to standard techniques (Abdiche, et al. (2016) MAbs 8:264-277). Briefly, anti-Siglec-5 antibodies were immobilized on a HC 30M chip at four different densities, at antibody concentration of 10 μg/mL, 2.5 μg/mL, 0.63 μg/mL, and 0.16 μg/mL. Varying concentrations (0-500 nM) of Histidine-tagged human Siglec-5 or cynomolgus Siglec-5 (NovoProtein) were then bound to the captured anti-Siglec-5 surface (5 min injection time, 15 min dissociation time) in HBS-EP⁺/1 mg/mL BSA running buffer. Kinetic analysis was performed using Carterra software to extract association and dissociation rate constants (kₐ and kd, respectively) for each antibody. Apparent affinity constants (KD) were calculated from the ratio kd/kₐ. None of the anti-Siglec-5 antibodies bound to cynomolgus Siglec-5 protein.

The next assay concerns the target T2, human Siglec-14 (human, UniProt Q08ET2 17-396).
T2 construct: also called CHO-S14; CHO-S hSiglec-14
T2 sequence: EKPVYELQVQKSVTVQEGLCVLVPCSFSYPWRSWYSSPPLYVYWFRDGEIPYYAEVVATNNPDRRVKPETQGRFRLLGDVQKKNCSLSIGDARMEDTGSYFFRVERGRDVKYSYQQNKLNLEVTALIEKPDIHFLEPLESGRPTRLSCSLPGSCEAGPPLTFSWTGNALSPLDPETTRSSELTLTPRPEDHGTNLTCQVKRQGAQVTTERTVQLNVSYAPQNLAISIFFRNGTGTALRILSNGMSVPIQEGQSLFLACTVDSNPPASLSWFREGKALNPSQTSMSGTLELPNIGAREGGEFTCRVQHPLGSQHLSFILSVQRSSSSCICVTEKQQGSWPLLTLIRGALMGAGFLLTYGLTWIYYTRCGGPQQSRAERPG
Nature of the assay: FACS titration, CHO-S hSiglec-14 cells, anti-human IgG secondary; y-axis Fold over isotype, x-axis Antibody (nM), log scale; the same flat line on CHO-S Parental cells. The protocol: (§1) CHO cells were incubated with increasing concentrations of anti-Siglec-5 antibody, as indicated on the x-axis of each plot. The binding of anti-Siglec-5 antibodies to the surface of CHO cells was then measured by FACS. The y-axis provides the binding of each indicated anti-Siglec-5 antibody to the surface of CHO cells relative to hIgG1 isotype control antibodies. S5-174-H2L1 refers to antibody S5-174-H3; S5-174-H3L1 refers to antibody S5-174-H5; S5-174-H3L2 refers to antibody S5-174-H6; S5-174-H4L1 refers to antibody S5-174-H7; S5-174-H4L2 refers to antibody S5-174-H8; S5-G03-H2L1 refers to antibody S5-G-03-H4; S5-G03-H2L2 refers to antibody S5-G-03-H5; S5-G03-H3L1 refers to antibody S5-G-03-H7; S5-G03-H3L2 refers to antibody S5-G-03-H8; and S5-G03-H3L3 refers to antibody S5-G-03-H9.
(§2) Various anti-Siglec-5 antibodies of the present disclosure were evaluated for their ability to bind to CHO cells which were stably transfected with human Siglec-5 (CHO-S5) or human Siglec-14 (CHO-S14). Cells were incubated with various dilutions of anti-Siglec-5 antibodies for 30 minutes on ice in the dark, followed by a 30-minute incubation with a fluorescently conjugated anti-human IgG secondary antibody. Cells were then washed twice in FACS buffer (PBS+2% FBS, 2 mM EDTA), and flow cytometry was performed on a BD FACS Canto. Data were analyzed using FlowJo software (Ashland, Oreg.). In FIG. 9, hIgG1 refers to isotype control antibodies; S5-174-H2L1 refers to antibody S5-174-H3; S5-174-H3L1 refers to antibody S5-174-H5; S5-174-H3L2 refers to antibody S5-174-H6; S5-174-H4L1 refers to antibody S5-174-H7; S5-174-H4L2 refers to antibody S5-174-H8; S5-G03-H2L1 refers to antibody S5-G-03-H4; S5-G03-H2L2 refers to antibody S5-G-03-H5; S5-G03-H3L1 refers to antibody S5-G-03-H7; S5-G03-H3L2 refers to antibody S5-G-03-H8; and S5-G03-H3L3 refers to antibody S5-G-03-H9.

The next assay deals with T3, human Siglec-5 (human, UniProt O15389 17-551).
T3 construct: also called CHO-S5; CHO-S hSiglec-5
T3 sequence: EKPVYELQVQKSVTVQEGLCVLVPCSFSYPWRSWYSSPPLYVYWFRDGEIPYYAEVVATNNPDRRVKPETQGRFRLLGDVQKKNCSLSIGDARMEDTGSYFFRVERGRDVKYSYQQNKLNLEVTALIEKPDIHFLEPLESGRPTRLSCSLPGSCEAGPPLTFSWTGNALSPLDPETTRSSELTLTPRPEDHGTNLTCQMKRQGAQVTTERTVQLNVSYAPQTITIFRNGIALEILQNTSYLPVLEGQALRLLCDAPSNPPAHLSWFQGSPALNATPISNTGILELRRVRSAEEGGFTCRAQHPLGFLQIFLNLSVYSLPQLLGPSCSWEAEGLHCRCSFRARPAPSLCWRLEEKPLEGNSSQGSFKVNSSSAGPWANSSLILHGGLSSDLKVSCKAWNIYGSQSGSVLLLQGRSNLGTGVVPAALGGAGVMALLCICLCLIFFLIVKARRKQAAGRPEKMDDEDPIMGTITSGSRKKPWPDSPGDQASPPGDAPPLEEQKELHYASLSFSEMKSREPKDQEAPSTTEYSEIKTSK
The experiment in a line: FACS titration, CHO-S hSiglec-5 cells, anti-human IgG secondary; y-axis Fold over isotype, x-axis Antibody (nM), log scale. The protocol:
as §1, §2

B1: S5-G-03 (antibody, V domains shown)
VH: QAYLQQSGGGLVQPGQSLKLSCAASGFTFSTYGMSWVRQTPDKRLELVATINSNGDNTYYPDSVKGRFTISRDNANNTLYLQMSSLKSEDTAMYFCARAWPSITTVFAPYTLDYWGQGTSVTVSS
VL: DIVLTQSPAIMSASPGEKVTMTCRASSSVSSSFLHWYQQKSGASPKLWIYSTSNLASGVPTRFSGSGSGTSYSLSISSVEAEDTATYFCQQYSGYPLTFGGGTKLEIK
notes: Mouse-derived variable domains; expressed in mammalian cells as full antibody; hIgG1 isotype control; also called SG-5-03
Regarding B1, in assay [1], the Kd was determined as 7.1 nM, the koff stood at 0.0001 s⁻¹ and the kon stood at 14000 M⁻¹ s⁻¹. In the assay with human Siglec-14, the binding result is “no binding (tested: last point between 1 and 10 nM)”.

B2: S5-G-03-H8 (antibody, V domains shown)
VH: EVQLLQSGGGLVQPGGSLRLSCAASGFTFSTYGMSWVRQAPGKGLELVATINSNGDNTYYADSVKGRFTISRDNSKNTLYLQMNSLRAEDTAVYYCARAWPSITTVFAPYTLDYWGQGTLVTVSS
VL: DIQMTQSPSSLSASVGDRVTITCRASSSVSSSFLHWYQQKPGKAPKLWIYSTSNLASGVPSRFSGSGSGTDYTLTISSLQPEDFATYYCQQYSGYPLTFGQGTKLEIK
notes: Humanized variant of S5-G-03; also called S5-G03-H3L2; SG-5-03-H8
Consider B2, for which the binding result with human Siglec-5 is “binds”; with human Siglec-14, “no binding (tested: last point between 1 and 10 nM)”.

B3: S5-G-03-H5 (antibody, V domains shown)
VH: EVQLLESGGGLVQPGGSLRLSCAASGFTFSTYGMSWVRQAPGKGLELVATINSNGDNTYYADSVKGRFTISRDNSKNTLYLQMNSLRAEDTAVYYCARAWPSITTVFAPYTLDYWGQGTLVTVSS
VL: DIQMTQSPSSLSASVGDRVTITCRASSSVSSSFLHWYQQKPGKAPKLWIYSTSNLASGVPSRFSGSGSGTDYTLTISSLQPEDFATYYCQQYSGYPLTFGQGTKLEIK
notes: Humanized variant of S5-G-03; also called S5-G03-H2L2; SG-5-03-H5
Turning to B3, the binding result with human Siglec-5 is “binds”; with human Siglec-14, “no binding (tested: last point between 1 and 10 nM)”.

B4: S5-G-03-H4 (antibody, V domains shown)
VH: EVQLLESGGGLVQPGGSLRLSCAASGFTFSTYGMSWVRQAPGKGLELVATINSNGDNTYYADSVKGRFTISRDNSKNTLYLQMNSLRAEDTAVYYCARAWPSITTVFAPYTLDYWGQGTLVTVSS
VL: DIQMTQSPSSLSASVGDRVTITCRASSSVSSSFLHWYQQKPGKAPKLLIYSTSNLASGVPSRFSGSGSGTDFTLTISSLQPEDFATYYCQQYSGYPLTFGQGTKLEIK
notes: Humanized variant of S5-G-03; also called S5-G03-H2L1
With B4, the binding result was “binds” with human Siglec-5; “no binding (tested: last point between 1 and 10 nM)” with human Siglec-14.

B5: S5-174-H5 (antibody, V domains shown)
VH: QVQLVQSGAEVKKPGSSVKLSCKASGYTFTNYWMHWVRQAPGQGLEWVGEIDPSDGYVTYAQKFQGRATLTVDKSTSTAYMELSSLRSEDTAVYYCAGVYYGNSIYYAMDYWGQGTLVTVSS
VL: DIQMTQSPSSLSASVGDRVTITCRASQDVGTAVAWYQQKPGKAPKLLIYWTSTRHTGVPSRFSGSGSGTDFTLTISSLQPEDFATYYCQQYRSYPFTFGQGTKLEIK
notes: Humanized variant of S5-174; also called S5-174-H3L1
B5: the binding result with human Siglec-5 is “binds”; with human Siglec-14 it was “no binding (tested: last point between 1 and 10 nM)”.

B6: S5-174-H6 (antibody, V domains shown)
VH: QVQLVQSGAEVKKPGSSVKLSCKASGYTFTNYWMHWVRQAPGQGLEWVGEIDPSDGYVTYAQKFQGRATLTVDKSTSTAYMELSSLRSEDTAVYYCAGVYYGNSIYYAMDYWGQGTLVTVSS
VL: DIQMTQSPSSLSTSVGDRVTITCRASQDVGTAVAWYQQKPGKAPKLLIYWTSTRHTGVPSRFSGSGSGTDFTLTISSVQPEDLATYYCQQYRSYPFTFGQGTKLEIK
notes: Humanized variant of S5-174; also called S5-174-H3L2
Take B6: the binding result is “binds” in the assay with human Siglec-5; “no binding (tested: last point between 1 and 10 nM)” in the assay with human Siglec-14.

B7: S5-174-H7 (antibody, V domains shown)
VH: QVQLVQSGAEVKKPGSSVKLSCKASGYTFTNYWMHWVRQAPGQGLEWVGEIDPSDGYVTYAQKFQGRATLTVDRSTSTAYMELSSLRSEDTAVYYCAGVYYGNSIYYAMDYWGQGTLVTVSS
VL: DIQMTQSPSSLSASVGDRVTITCRASQDVGTAVAWYQQKPGKAPKLLIYWTSTRHTGVPSRFSGSGSGTDFTLTISSLQPEDFATYYCQQYRSYPFTFGQGTKLEIK
notes: Humanized variant of S5-174; also called S5-174-H4L1
On to B7, for which the binding result is “binds” with human Siglec-5; “no binding (tested: last point between 1 and 10 nM)” in the assay with human Siglec-14.

B8: S5-174-H8 (antibody, V domains shown)
VH: QVQLVQSGAEVKKPGSSVKLSCKASGYTFTNYWMHWVRQAPGQGLEWVGEIDPSDGYVTYAQKFQGRATLTVDRSTSTAYMELSSLRSEDTAVYYCAGVYYGNSIYYAMDYWGQGTLVTVSS
VL: DIQMTQSPSSLSTSVGDRVTITCRASQDVGTAVAWYQQKPGKAPKLLIYWTSTRHTGVPSRFSGSGSGTDFTLTISSVQPEDLATYYCQQYRSYPFTFGQGTKLEIK
notes: Humanized variant of S5-174; also called S5-174-H4L2
With B8, the binding result in the assay with human Siglec-5 is “binds”; with human Siglec-14, “no binding (tested: last point between 1 and 10 nM)”.

B9: S5-174-H3 (antibody, V domains shown)
VH: QVQLVQSGAEVKKPGSSVKVSCKASGYTFTNYWMHWVRQAPGQGLEWMGEIDPSDGYVTYAQKFQGRVTITVDKSTSTAYMELSSLRSEDTAVYYCAGVYYGNSIYYAMDYWGQGTLVTVSS
VL: DIQMTQSPSSLSASVGDRVTITCRASQDVGTAVAWYQQKPGKAPKLLIYWTSTRHTGVPSRFSGSGSGTDFTLTISSLQPEDFATYYCQQYRSYPFTFGQGTKLEIK
notes: Humanized variant of S5-174; also called S5-174-H2L1
Turning to B9, the binding result with human Siglec-5 is “binds”; with human Siglec-14, “no binding (tested: last point between 1 and 10 nM)”.
